# Values quoted from earlier work, collected in PMC2794832 (Journal of nuclear medicine : official publication, Society …, 2008).
# System: tumors of HEK cells stably transfected to express only SSTR2
# Details: mouse, in vivo
substance,measurement,value
"^111In-1,4,7,10-tetraazacyclododecane-1,4,7,10-tetraacetic acid-sst2-ANT [^111In-DOTA-sst2-ANT]",uptake of the radiopharmaceutical in tumors,high uptake
